For data set [1], the system named is MHP77-3 meganuclease (engineered I-CreI). As to the kind of experiment: cell_activity. To be noted: maize embryos.
Data set [2] concerns the target T1, MHP77 meganuclease (engineered I-CreI).
T1 chain: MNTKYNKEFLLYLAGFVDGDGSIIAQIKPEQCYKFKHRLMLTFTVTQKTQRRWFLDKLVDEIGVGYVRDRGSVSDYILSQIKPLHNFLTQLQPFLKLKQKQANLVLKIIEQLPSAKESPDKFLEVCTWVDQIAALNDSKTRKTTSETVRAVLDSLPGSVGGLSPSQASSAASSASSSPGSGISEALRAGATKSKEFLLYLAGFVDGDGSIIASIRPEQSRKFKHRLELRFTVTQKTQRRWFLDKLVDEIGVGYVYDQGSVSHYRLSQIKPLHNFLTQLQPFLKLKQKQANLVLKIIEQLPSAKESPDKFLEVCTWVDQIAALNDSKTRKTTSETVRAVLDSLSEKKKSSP
Description: cell_activity; maize embryos. To be noted: tags: SV40 NLS. As for the experimental part:
(§1) Trait gene cassettes can be introduced at other target sites of the complex trait locus through homologous recombination mediated by engineered meganucleases. Engineered meganucleases were designed to direct double strand breaks a two other MHP target sites, MHP55 (SEQ ID NO: 72) and MHP77 (SEQ ID NO: 74) within the complex trait locus. Target site modification was determined using qPCR. The probe sequence for qPCR screening of the MHP55 target site was […] (SEQ ID NO: 115), the MHPTS55_Forward_MGBprimer sequence was […] (SEQ ID NO: 116), and MHP55_reverse_MGB primer was […] (SEQ ID NO: 117). The probe sequence for qPCR of MHP77 target site was […] (SEQ ID NO: 118), the MHPTS77_Forward_MGB primer sequence was […] (SEQ ID NO: 119), and MHP77_reverse_MGB primer was […] (SEQ ID NO: 120). The trait gene cassettes encoding MHP14, MHP55 and MHP77 were introduced into maize somatic embryos via transformation techniques using bombardment and following bombardment, embryos were incubated on 560P (maintenance medium) for 48 hours […].

Data set [3] concerns the target T2, MHP14+ meganuclease (engineered I-CreI).
T2 chain: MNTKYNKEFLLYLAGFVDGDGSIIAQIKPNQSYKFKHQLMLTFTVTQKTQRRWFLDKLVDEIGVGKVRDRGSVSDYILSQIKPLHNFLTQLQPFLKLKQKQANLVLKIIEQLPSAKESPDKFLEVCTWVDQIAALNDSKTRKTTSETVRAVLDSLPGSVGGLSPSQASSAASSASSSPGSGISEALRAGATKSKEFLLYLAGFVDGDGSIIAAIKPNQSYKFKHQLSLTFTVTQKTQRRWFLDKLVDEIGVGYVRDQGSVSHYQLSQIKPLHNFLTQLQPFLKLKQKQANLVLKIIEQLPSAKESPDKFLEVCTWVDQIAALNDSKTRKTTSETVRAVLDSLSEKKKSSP
As to the kind of experiment: cell_activity; maize embryos. Particulars: tags: SV40 NLS. As for the experimental part: as §1

Data set [4] has as its target T3, MHP55-2 meganuclease (engineered I-CreI).
T3 chain: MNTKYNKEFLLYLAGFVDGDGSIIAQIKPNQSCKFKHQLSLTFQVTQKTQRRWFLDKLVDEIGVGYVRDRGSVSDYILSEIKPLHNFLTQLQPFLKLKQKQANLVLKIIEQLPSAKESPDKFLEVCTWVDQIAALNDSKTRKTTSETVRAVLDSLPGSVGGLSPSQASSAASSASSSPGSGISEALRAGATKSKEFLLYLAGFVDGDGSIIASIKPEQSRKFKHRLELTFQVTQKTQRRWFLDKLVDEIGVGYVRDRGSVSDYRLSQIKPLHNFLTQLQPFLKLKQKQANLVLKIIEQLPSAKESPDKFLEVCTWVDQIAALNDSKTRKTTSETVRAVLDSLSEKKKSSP
Description: cell_activity; maize embryos. To be noted: tags: SV40 NLS. As for the experimental part:
as §1

In data set [1], “GGGCGGTATGTATGTCATACTA (double strand) [MHP77 target]” came in with an activity (% target site mutation) of 11.

B1: MHP77 target (dsDNA)
DNA 1: GGGCGGTATGTATGTCATACTA
DNA 2: TAGTATGACATACATACCGCCC
Consider B1, for which, in data set [2], the activity is 1 % target site mutation.

B2: MHP14 target (dsDNA)
DNA 1: CAAACAGATTCACGTCAGATTT
DNA 2: AAATCTGACGTGAATCTGTTTG
Consider B2, for which, in data set [3], the activity was found to be 40 % target site mutation.

B3: MHP55 target (dsDNA)
DNA 1: CCAACCGTCGTGAGACCTGCCC
DNA 2: GGGCAGGTCTCACGACGGTTGG
B3: the activity in data set [4] is 5 % target site mutation.

For the origin of these results see patent US20130263324, “METHODS FOR PRODUCING A COMPLEX TRANSGENIC TRAIT LOCUS” (E.I. du Pont de Nemours and Company, published 2013).
